{"source": "IntAct's records for PubMed 26211610", "parents": {"B1": {"name": "Translation initiation factor eIF2 assembly protein (Saccharomyces cerevisiae), Q05791 (parent)", "chain": "MSSQEYTTFIDIPVTRAQVEHCSYSFWSSLYPKYVPKSIVLKSLPKKFIQYLEQDGIKLPQEENSRSVYTEEIIRNEDNDYSDWEDDEDTATEFVQEVEPLIDFPELHQKLKDALNELGAVAPKLNWSAPRDATWILPNNTMKCNEVNELYLLLNASNYIMHDLQRAFKGCVDGDDIKGLKFDLVLRQWCDMNPALEFRVFVKNAHIVGATQRDLNYYDYLDELSDTFKDLIDEIVHDVVLPKFPDKSFVLDVYIPRPFNKIFIVDINPFARKTDSLLFSWNEIAAIAPPKNDVEDYELRLVTRHNTGRFASKEHSENHVPQDLVEASLNPEAIRELTQKWKELLSQQAKEESSDSENET"}}}
{"variants_of": "B1", "conditions": "with if2g_yeast GCD11, P32481"}
{"variant": "D266A;I267A;N268A", "effect of a mutation on the interaction": "decreasing interaction strength"}
